Assay results taken from the domain aggregation screens of Martell et al. (2025).

Experiment: soluble fraction after stress (log2 fold change); higher = more stays soluble; pooled small domains, quantitative proteomics
Conditions: stress: 75 degC
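Further: 20 min heating vs room temperature control held 20 min.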

| Sequence | soluble fraction (log2) |
| --- | --- |
| HMAADWTAIKLAYVNGGMSMRELAQRFHVGAAGLMKRAAKEGWEAERQQNSAKVSNAAQMLIN | 0.049 |
| HMAAEEAFPGGRIVQNAEENRLQILFDEIPGEDVRAALKSHGFRWSPKNKAWQRQLTQNAEYDARRILGI | -0.06 |
| HMAAEELTVDKILTAQSFGVTAEAILAKVNDPANTVATLTQADVDRLRAAGVPEGVVTALQARAPQ | 0.118 |
| HMAAENAVGARVKALREAMDLSLRDLSERSGVSPTMLSQVERGSTSPTLAVAEKIAAGLDLSLSQLLRL | 0.137 |
| HMAAGADEATTVPNVSGDTLNQAIKSLKAEGLGYMLSGAGARVRDQMPEPGAEMTKGSVVMLYMDGDAEVD | -0.0497 |
| HMAAGVESLTEKEFAVASLVGGGASNREIAERLAMSERTVKSHLSSIFRKMDVRDRVQLALAMND | -0.0767 |
| HMAAIPATVDEETYRRLKPMLKQYGILYHEFKPLRSGKKGAVELIFMEKDLALVQELLSRLKKEK | 0.432 |
| HMAAIPEQVSEEVVSAVKASGIDPGKVTKEQWTSLLKGRRTALGSSSGKLFMLSKAPVGYTLKAVNA | 0.439 |
| HMAAMDMFVKLDALDAELTEQLKALPAEPDDARVERGLALLTDYDHRIKALLTEIFGGENDFDKVL | -3.1 |
| HMAAPPPLSDYRNMQEAEHIRNILLQHHGNVRRAAAALELSRPYLYQKMKQLGINIAELRELSLSHSS | -1.03 |
| HMAASEAESIRILLSEGVDRVHLRKPQSAEADMRRLIEALPPELYPRLTLQDHLHLAGEYGT | -0.0361 |
| HMAATGPLTPREAEIARLAAGHLSNRQIAEQLVVSERTVENHLYRIFIKLAVTGRDDLAAALAATEQ | -2.55 |
| HMAATNVKVPDLKGWDYNNAVGKYGDKLSFVKKSIYSDSVSKGIIIYNARVGETVAQGTTIEVTVSLGPKG | -1.46 |
| HMAAVPYQVKITTEDLRIRTGPGTNHDFTGQYTGKGVFTIVEESEGSGAPIWGRLKSGAGWIGIDPSWSVR | -0.546 |
| HMADAGQTTAATELKQAPNAGSATISQLSAGQTLQIGTRQGAWYQVKTPQGEGWVRMLSVRLQ | -0.0302 |
| HMADEGFRQTVLAVLARWESKIHHGQYNALKAKVMNGNWSSFVKQVVKFQGKFIHPDAAKELLGLFG | -3.5 |
| HMADFIKEIKTNNPRQLLKSILSSFMPRALILELEMLLWNDLKSKPIGEWSNTQIENVGKLLNNWILKPAA | 0.162 |
| HMADIWDLLRSEYKLTETDVRMLTDMLPDELMNDFRSEVLALRDRMNRYKVNNPKSYVVTSLKNFIIQHTP | -1.09 |
| HMADKNIIGVLSAADNLGKVRITTANGEKYIITVPDGLSDIVKTYWEEEVSVKYVIEKRRKILVDIDG | -2.04 |
| HMADLIIMSSDATEKQVDKVINKIKNMGFNVNISKGTEKTIIGIIGDTRGISDEVFKIMPGVIEVISILRD | -1.09 |
| HMADLIVFTTDANKEKKVDDETYFYLDVVSDGKLVENYELTEKQYNYIKDLGVGEYVYNEKGKLDSYTAFT | -0.00206 |
| HMADPLQLLEQQRQDYIQAVTEYLNSHPNAKPIWDVMKKDAGYGDMKLTDIPLGILKKLYITLT | -0.65 |
| HMADRVFGHIPGVAVGSIFPDRRSLSQTGVHRPTQAGISGNKTDGADSIVVSGGYRDDRDYGDLIIYTG | -0.107 |
| HMADTFVMPDLVYRRYEPVRGYFERGGFHMGAVKFEPYEGISDGTILRQNPLPGHPLRRRDVISLVVAAS | -2.4 |
| HMADYYETLGVERTASEEDIKRAYRKMSRKYHPDIAGPEFEEKFKEVNTAYEVLSDPDKRRMYDAGVDPND | 0.0815 |
| HMADYYSILGLTKNATDIEIKSAFRKLAKIYHPDKNPDPNARVLFEHILKAYDTLINPHSRRRYDSL | -1.31 |

| Sequence | soluble fraction (log2) |
| --- | --- |
| HMAEELELFHRLISVTGVGPKGALGFLSQLKPQEIILAILSDDVKTLSKAPGVGRKTAQRVILELKDKF | -1.07 |
| HMAEGPYSGKKVEKYPGGMEKRETMYSEGKLTRVTEFHQSGQKKMEVKVDANGQWKRLYWDNNGNPT | -0.0401 |
| HMAEIIVHEINRHLGESDEPVEFPEERREEAVAELLKNFHNDDAFRKMDDGKYEVALDGEAVREAARSLLA | 0.175 |
| HMAELTTVQAADILHVSRPFLIKLLDEGQIPYHRVGKHRRIRMEDVMNYKRAIDQQREAVLDQLVAEA | -0.371 |
| HMAEMLQDVLNMLSAKDREILVRYYYYYESVKQVAAEMQMSESAVKMRMSRARKKMQQELIDKG | -4.61 |
| HMAEPAEDLLSLEGMDKGLAYQLASNGVVTREDLAELATDDLLEIREMDAEQAAALIMKAREHWFEAEQQ | 0.755 |
| HMAEPEALLAMAQRILGEEVAQSLFQGAAREQGKEGYLPDPTPAFLDALEARLSGSVGAATAHAMISQLVG | -0.15 |
| HMAEPSTSYTQFMDQAKEGKIKRVDVQGRTLTVTPTEGATYKITAPGDLWMVEDLRKAGVQVYGQP | 0.29 |
| HMAEPYDERKVMEQMIPKGKNTIVAHLGHLKDHGETGYLQEALSYLRERESELGFDLKEVRALVHN | 0.365 |
| HMAEQVLHQKLAARRKELNSLVAQVARVRGIPHSHVHSGLRREAGGPPLAQATTDQVEARISLARKWLRA | -1.47 |
| HMAERLQARIDAPGVRLDKALAETFPTLSRARLQALLADGAVTRDGQTVSNGSAKAQPGLYVVALPPVA | 0.385 |
| HMAESNQIQLSDVREALNMIGPASWLDLVHYLDTGKGRGGQRLRRMLKSLSRSGEIELVARGTYQITDN | -0.437 |
| HMAEVALFVNGSDVNLRSGPGQESTRVIGSLNLGDEVRIKSQNGQWREVYVPKTRQVGWVAHWLLSEAPP | -0.535 |
| HMAEVPDLRNKTQQEAEAELTNHNLKLGNVTEEYSATVEAGRVISQSTSYGTKVLEGSSVDITISKGPEPT | 0.135 |
| HMAEWLFDARKIPDEVMNYLRRIAVQAIEEKHYSPELVADLLGISRSSIYDWLNWYRNGGEEDLDTRKA | -1.53 |
| HMAFAQMAQEAAKGKDDFNDLRQEMEAVIKEQPHILLMAQFGQNPYEIAYQEAKRRKAQDQQQQQ | 0.877 |
| HMAFGTGTVTASSLRVREDASTSAATLDTLSKGSKVSVLADEQDGFYKVQIGEQVGYMSAEYLDVTE | 0.00175 |
| HMAFKNGLLQTSKKVTLVRKVDGVTMRFDSLRAASVFLGRNKGYLSNVIKNGRTLDNYEIVVGE | -1.04 |
| HMAFRIGGFVQEGSVVRQQDGGTVRFEVTDTAHSVPVTYKGSLPDLFKEGKGVVAQGKLMNGTFVADQVLA | 0.165 |
| HMAGATDTVRNLLERQIREGELLPGQRLPTEPELAARLGVSRNSLREALQSLEDSGLIVKRHGIGTFVTE | 0.0985 |
| HMAGLELVVTREQAGRTVKSLLRGELGISTALMGRLKRTGTGLTVNGTRVFTNAVLREGDRLAVDLDAAE | -1.35 |
| HMAGLKERLFYFIEYKGLTVQSFEKTVGLSNGAVSKMGDNTRRSTIDKISNFFGDLNKNWLLTGEGEMLI | -2.98 |
| HMAGRKMMVMANNLSVRKSANSLSEKLADLSRGDTVEYISSTNGWNKVRYKGQIGYVSSYYLKDTGEEVE | -0.562 |
| HMAGTKRAENIEIQKLTEVLEARLDSVGFFWPDHKAESMIMTLRNMISRLPLTEADVRVFHGIIKSLADK | -0.486 |
| HMAGTWQDQGNGQWKYQNDDGSYATGWIEDSGKSYYLDANGIMLANTTTPDGKQVGPDGALIP | -0.15 |
| HMAHETIDVAALRVGMFVQLDLGWLSHPFPLSSFRISSEDQIATIRALGLKRVRWSSEQSDS | -4.58 |

| Sequence | soluble fraction (log2) |
| --- | --- |
| HMAHPRTHEALNPLWEKYLGPNAGNDFFLSGGTSLKALMFLKDLEKTLNKRIAIHAFFKDPTYEHVVSD | -0.84 |
| HMAHTGGNTLTREKAVSVRSASDALLFEIHWNETPREDILSTREEKVDGKTYSIITIRTGKGREDHYYLLS | -1.35 |
| HMAHYPGKVNNELVEFIRSEQRKTPHMTLTGLNRKLQRTYDLTLSESTVRKLVEAETILPLAREPD | -0.25 |
| HMAIDLPVTTVNGKDYYYYDVQPKETIFSLSQRLGISREEIISYNPGVDGGLKAYTRLYFPVESGL | -1.21 |
| HMAIDLSLIPGNLLRELHGAVEDGDMYRIRELIRSISAVDEKVGKELLLLAERYDYERLLELVND | -0.887 |
| HMAIDWVQIKAEYISGTMSASKLAEKHGVSVYAIRKRSGKERWQELRRQNQSETANKIAEKI | -2.16 |
| HMAIDYYQTLINLGYKLQDRGDYWQTSAIHRGGDNPTALQIYKNTGVWKDYVSGGGFKPFKALVEKSD | -0.944 |
| HMAIELTPRQLDIIELVRKHAPITGEQIAELLGVTRPSIRSDLGLLVMLGYIDAKPKVGYFAGPRM | -1.16 |
| HMAIGSRLKVTTDATNLNIRSTPSTEGDIVGKAAHHEIVTLVEKTDDSWWKIKTNDGEEGYAYAQYLSPV | -0.031 |
| HMAIIQSNNIFKSQKEIVDEILVELDIPKDKWNFFHMLISSGYKDEFDTNRIYEIIQTNYNMMDR | -0.298 |
| HMAILDTALDVLSMNLKDNYTSFQILRQAAIAGKIAFNLTEKNPLGGVIEVELTGDDLETWIEAATW | 0.183 |
| HMAIMISINAKGEVAWNDQIISLDDLAQRFNAAGQQAQKPTVQLRADKESRYDMVAQVMSRASEAGLSDIA | -0.83 |
| HMAIRLIKASREFNVGISTIVEFLEKKGHAIDSDPNSKIPDELYQLIEKEFQTEGSVKKAAKQI | -1.81 |
| HMAITLEVAKKHLEMWLEAESEVAINQSYTIGGKSFTRANLAEIRKQIEYWSNKVAELENLA | -1.04 |
| HMAITYETKVISGVNLRSAPSTSASVYQLIPKGENIHVVQKVNDYWLKVQTKDGKTGYISASSKYTNYIG | -2.7 |
| HMAIWAVFYKNEPFNLKSFNSLTSYPGPKYKKTSFSNPGHALNLAKKLNLTFGTEDFQVVKLTQGTIV | -2.69 |
| HMAKIEVENLEETILENLKANNGFMPYNDKTSPEEIYEVFHVSKKHFKNSLGGLMKKGLIFQNEKGTKL | -0.193 |
| HMAKITERVMGSAALRDYDPNYLPDEVLKALDGYPPFDGYVYKDGILYARVKIGDTFFIIPPI | -2.53 |
| HMAKKDVESTLGGRLRVARVRAGLTQVELARMLGMNSVSLSNVEGGRRGLSMKQLVRVAKILEVPVAYLLG | -2.36 |
| HMAKMPSIIIMKDGVIRTSELEQIERDENWLNEEMKKQHIDNPEDVFLAEFWDGKVNFILQDGKIK | -0.0894 |
| HMAKNDSGLNNHTFNTIRDALQKALTDGPQEAKKLTENLPFPADKIITVIRYLADHDEHFSLEDGIISLT | 0.609 |
| HMAKNIEVPNLVGSTISVARNDLKQLGLHVIVRDSVWSEDKKIDTILEQFPEPGKKLKPEGVVQVVVSI | -0.909 |
| HMAKNSVLTIELWNSTAFKWRKDTEPYSESMSVDFNRSVRLTDGISIMFSKFGFVPGIQYLIPLQT | -0.534 |
| HMAKQQTTTTAHVVTTGETLYSIAQKNGISVEELKKSNNITSDKLRPGQTLHITKVSKTSSTAK | 0.87 |
